{"source": "patent US20260176324A1", "about": "(published 2026)", "binders": {"B1": {"name": "nwTCR-0125 (TCR, V domains shown)", "Valpha": "AQKVTQAQTEISVVEKEDVTLDCVYETRDTTYYLFWYKQPPSGELVFLIRRNSFDEQNEISGRYSWNFQKSTSSFNFTITASQVVDSAVYFCARDQTGANNLFFGTGTRLTVIP", "Vbeta": "DVKVTQSSRYLVKRTGEKVFLECVQDMDHENMFWYRQDPGLGLRLIYFSYDVKMKEKGDIPEGYSVSREKKERFSLILESASTNQTSMYLCASSPPHLASGASTDTQYFGPGTRLTVL"}, "B2": {"name": "nwTCR-0126 (TCR, V domains shown)", "Valpha": "AQKVTQAQTEISVVEKEDVTLDCVYETRDTTYYLFWYKQPPSGELVFLIRRNSFDEQNEISGRYSWNFQKSTSSFNFTITASQVVDSAVYFCALSDPRYSGGGADGLTFGKGTHLIIQP", "Vbeta": "DSGVTQTPKHLITATGQRVTLRCSPRSGDLSVYWYQQSLDQGLQFLIQYYNGEERAKGNILERFSAQQFPDLHSELNLSSLELGDSALYFCASSPRGGDSILDTQYFGPGTRLTVL"}, "B3": {"name": "nwTCR-0127 (TCR, V domains shown)", "Valpha": "DQQVKQNSPSLSVQEGRISILNCDYTNSMFDYFLWYKKYPAEGPTFLISISSIKDKNEDGRFTVFLNKSAKHLSLHIVPSQPGDSAVYFCAGYQGGYKLSFGAGTTVTVRA", "Vbeta": "EAQVTQNPRYLITVTGKKLTVTCSQNMNHEYMSWYRQDPGLGLRQIYYSMNVEVTDKGDVPEGYKVSRKEKRNFPLILESPSPNQTSLYFCASSTRDRDNEQFFGPGTRLTVL"}, "B4": {"name": "nwTCR-1708 (TCR, V domains shown)", "Valpha": "QKEVEQNSGPLSVPEGAIASLNCTYSDRGSQSFFWYRQYSGKSPELIMFIYSNGDKEDGRFTAQLNKASQYVSLLIRDSQPSDSATYLCAVNMPGNMLTFGGGTRLMVKP", "Vbeta": "DARVTQTPRDKVTEMGQEVTMRCQPILGHNTVFWYRQTMMQGLELLAYFRNRAPLDDSGMPKDRFSAEMPDATLATLKIQPSEPRDSAVYFCASGPEGLDNEQFFGPGTRLTVL"}, "B5": {"name": "nwTCR-2563 (TCR, V domains shown)", "Valpha": "SQQGEEDPQALSIQEGENATMNCSYKTSINNLQWYRQNSGRGLVHLILIRSNEREKHSGRLRVTLDTSKKSSSLLITASRAADTASYFCATDRTGGYNKLIFGAGTRLAVHP", "Vbeta": "ETGVTQSPTHLIKTRGQQVTLRCSSQSGHNTVSWYQQALGQGPQFIFQYYREEENGRGNFPPRFSGLQFPNYSSELNVNALELDDSALYLCASSLQTGDEQYFGPGTRLTVT"}, "B6": {"name": "nwTCR-2595 (TCR, V domains shown)", "Valpha": "ILNVEQSPQSLHVQEGDSTNFTCSFPSSNFYALHWYRWETAKSPEALFVMTLNGDEKKKGRISATLNTKEGYSYLYIKGSQPEDSATYLCAFNNQGGKLIFGQGTELSVKP", "Vbeta": "EAQVTQNPRYLITVTGKKLTVTCSQNMNHEYMSWYRQDPGLGLRQIYYSMNVEVTDKGDVPEGYKVSRKEKRNFPLILESPSPNQTSLYFCASSSGTGGGAEAFFGQGTRLTVV"}, "B7": {"name": "nwTCR-2310 (TCR, V domains shown)", "Valpha": "SQQGEEDPQALSIQEGENATMNCSYKTSINNLQWYRQNSGRGLVHLILIRSNEREKHSGRLRVTLDTSKKSSSLLITASRAADTASYFCATDGGGGADGLTFGKGTHLIIQP", "Vbeta": "DSGVTQTPKHLITATGQRVTLRCSPRSGDLSVYWYQQSLDQGLQFLIQYYNGEERAKGNILERFSAQQFPDLHSELNLSSLELGDSALYFCASSLHRDSDTEAFFGQGTRLTVV"}, "B8": {"name": "nwTCR-2390 (TCR, V domains shown)", "Valpha": "B7 Valpha with G93S", "Vbeta": "B7 Vbeta with L95H, H96G, D100T, T101D, E102T, A103Q, F104Y, Q107P, V114L"}, "B9": {"name": "nwTCR-2392 (TCR, V domains shown)", "Valpha": "DQQVKQNSPSLSVQEGRISILNCDYTNSMFDYFLWYKKYPAEGPTFLISISSIKDKNEDGRFTVFLNKSAKHLSLHIVPSQPGDSAVYFCAASYAGSARQLTFGSGTQLTVLP", "Vbeta": "GAGVSQSPSNKVTEKGKDVELRCDPISGHTALYWYRQRLGQGLEFLIYFQGNSAPDKSGLPSDRFSAERTGESVSTLTIQRTQQEDSAVYLCASSPGGNYGYTFGSGTRLTVV"}, "B10": {"name": "nwTCR-2424 (TCR, V domains shown)", "Valpha": "QKEVEQNSGPLSVPEGAIASLNCTYSDRGSQSFFWYRQYSGKSPELIMFIYSNGDKEDGRFTAQLNKASQYVSLLIRDSQPSDSATYLCARKKTSYDKVIFGPGTSLSVIP", "Vbeta": "DSGVTQTPKHLITATGQRVTLRCSPRSGDLSVYWYQQSLDQGLQFLIQYYNGEERAKGNILERFSAQQFPDLHSELNLSSLELGDSALYFCASSLGDSEQFFGPGTRLTVL"}, "B11": {"name": "nwTCR-2561 (TCR, V domains shown)", "Valpha": "GNSVTQMEGPVTLSEEAFLTINCTYTATGYPSLFWYVQYPGEGLQLLLKATKADDKGSNKGFEATYRKETTSFHLEKGSVQVSDSAVYFCALPAGGGADGLTFGKGTHLIIQP", "Vbeta": "GAGVSQSPSNKVTEKGKDVELRCDPISGHTALYWYRQSLGQGLEFLIYFQGNSAPDKSGLPSDRFSAERTGGSVSTLTIQRTQQEDSAVYLCASSFGTSGDQYEQYFGPGTRLTVT"}, "B12": {"name": "nwTCR-2629 (TCR, V domains shown)", "Valpha": "AQSVTQLDSHVSVSEGTPVLLRCNYSSSYSPSLFWYVQHPNKGLQLLLKYTSAATLVKGINGFEAEFKKSETSFHLTKPSAHMSDAAEYFCVVSVWTDKLIFGTGTRLQVFP", "Vbeta": "GAVVSQHPSWVICKSGTSVKIECRSLDFQATTMFWYRQFPKQSLMLMATSNEGSKATYEQGVEKDKFLINHASLTLSTLTVTSAHPEDSSFYICSANRDFGIYEQYFGPGTRLTVT"}, "B13": {"name": "nwTCR-1862 (TCR, V domains shown)", "Valpha": "GEDVEQSLFLSVREGDSSVINCTYTDSSSTYLYWYKQEPGAGLQLLTYIFSNMDMKQDQRLTVLLNKKDKHLSLRIADTQTGDSAIYFCAERGTDSWGKLQFGAGTQVVVTP", "Vbeta": "GAVVSQHPSWVICKSGTSVKIECRSLDFQATTMFWYRQFPKQSLMLMATSNEGSKATYEQGVEKDKFLINHASLTLSTLTVTSAHPEDSSFYICSARFANYYEQYFGPGTRLTVT"}, "B14": {"name": "nwTCR-2241 (TCR, V domains shown)", "Valpha": "ELKVEQNPLFLSMQEGKNYTIYCNYSTTSDRLYWYRQDPGKSLESLFVLLSNGAVKQEGRLMASLDTKARLSTLHITAAVHDLSATYFCAVDKAAGNKLTFGGGTRVLVKP", "Vbeta": "GEEVAQTPKHLVRGEGQKAKLYCAPIKGHSYVFWYQQVLKNEFKFLISFQNENVFDETGMPKERFSAKCLPNSPCSLEIQATKLEDSAVYFCASSPHHRYEQYFGPGTRLTVT"}, "B15": {"name": "nwTCR-2308 (TCR, V domains shown)", "Valpha": "KDQVFQPSTVASSEGAVVEIFCNHSVSNAYNFFWYLHFPGCAPRLLVKGSKPSQQGRYNMTYERFSSSLLILQVREADAAVYYCAGSNDYKLSFGAGTTVTVRA", "Vbeta": "EAQVTQNPRYLITVTGKKLTVTCSQNMNHEYMSWYRQDPGLGLRQIYYSMNVEVTDKGDVPEGYKVSRKEKRNFPLILESPSPNQTSLYFCASSTSPYNEQFFGPGTRLTVL"}}, "note": "Where a chain is given by its changes, count along the chain named.", "data": [{"molecular_target": "T1, KRAS G12V peptide on HLA-A*11:01 (human)", "T1 peptide": "VVGAVGVGK", "assay": "cytokine release", "protocol": "(§1) The affinity assay of TCR-T cells was performed as follows. Antigen-presenting cells (HLA-A*11:01 overexpressing T2 cells or K562 cells) were collected, and counted. […] 1 mL of cell suspension was added to each well of a 24-well plate, respectively. […] The cells were incubated in an incubator (37° C., 5% CO₂) for 2 h. After incubation, the antigen-presenting cells were collected and washed, and 100 μl of the antigen-presenting cells at 1E6/mL were added to corresponding wells of 96-well plates. […] Various nwTCR-T cells were co-cultured with the antigen-presenting cells (37° C., 5% CO₂) for 16 h respectively.", "values": [{"binder": "B1", "binding result": "recognises"}, {"binder": "B2", "binding result": "recognises"}, {"binder": "B3", "binding result": "recognises"}, {"binder": "B4", "binding result": "recognises"}, {"binder": "B5", "binding result": "recognises"}]}, {"molecular_target": "T2, KRAS G12V peptide on HLA-A*11:01 (human)", "T2 peptide": "VVVGAVGVGK", "assay": "cytokine release", "protocol": "as §1", "values": [{"binder": "B6", "binding result": "recognises"}]}, {"molecular_target": "T1, KRAS G12V peptide on HLA-A*11:01", "assay": "multimer staining", "values": [{"binder": "B7", "binding result": "recognises"}, {"binder": "B8", "binding result": "recognises"}, {"binder": "B9", "binding result": "recognises"}, {"binder": "B10", "binding result": "recognises"}, {"binder": "B11", "binding result": "recognises"}, {"binder": "B6", "binding result": "recognises"}, {"binder": "B12", "binding result": "recognises"}]}, {"molecular_target": "T2, KRAS G12V peptide on HLA-A*11:01", "assay": "multimer staining", "values": [{"binder": "B1", "binding result": "recognises"}, {"binder": "B2", "binding result": "recognises"}, {"binder": "B3", "binding result": "recognises"}, {"binder": "B4", "binding result": "recognises"}, {"binder": "B13", "binding result": "recognises"}, {"binder": "B14", "binding result": "recognises"}, {"binder": "B15", "binding result": "recognises"}, {"binder": "B5", "binding result": "recognises"}]}]}
